Reference: PMC6557901, “Rif1 S-acylation mediates DNA double-strand break repair at the inner nuclear membrane”

Biological target: T1, Rif1 NTD (100-1322) wild-type (Saccharomyces cerevisiae, UniProt P29539 100-1322)
T1 sequence: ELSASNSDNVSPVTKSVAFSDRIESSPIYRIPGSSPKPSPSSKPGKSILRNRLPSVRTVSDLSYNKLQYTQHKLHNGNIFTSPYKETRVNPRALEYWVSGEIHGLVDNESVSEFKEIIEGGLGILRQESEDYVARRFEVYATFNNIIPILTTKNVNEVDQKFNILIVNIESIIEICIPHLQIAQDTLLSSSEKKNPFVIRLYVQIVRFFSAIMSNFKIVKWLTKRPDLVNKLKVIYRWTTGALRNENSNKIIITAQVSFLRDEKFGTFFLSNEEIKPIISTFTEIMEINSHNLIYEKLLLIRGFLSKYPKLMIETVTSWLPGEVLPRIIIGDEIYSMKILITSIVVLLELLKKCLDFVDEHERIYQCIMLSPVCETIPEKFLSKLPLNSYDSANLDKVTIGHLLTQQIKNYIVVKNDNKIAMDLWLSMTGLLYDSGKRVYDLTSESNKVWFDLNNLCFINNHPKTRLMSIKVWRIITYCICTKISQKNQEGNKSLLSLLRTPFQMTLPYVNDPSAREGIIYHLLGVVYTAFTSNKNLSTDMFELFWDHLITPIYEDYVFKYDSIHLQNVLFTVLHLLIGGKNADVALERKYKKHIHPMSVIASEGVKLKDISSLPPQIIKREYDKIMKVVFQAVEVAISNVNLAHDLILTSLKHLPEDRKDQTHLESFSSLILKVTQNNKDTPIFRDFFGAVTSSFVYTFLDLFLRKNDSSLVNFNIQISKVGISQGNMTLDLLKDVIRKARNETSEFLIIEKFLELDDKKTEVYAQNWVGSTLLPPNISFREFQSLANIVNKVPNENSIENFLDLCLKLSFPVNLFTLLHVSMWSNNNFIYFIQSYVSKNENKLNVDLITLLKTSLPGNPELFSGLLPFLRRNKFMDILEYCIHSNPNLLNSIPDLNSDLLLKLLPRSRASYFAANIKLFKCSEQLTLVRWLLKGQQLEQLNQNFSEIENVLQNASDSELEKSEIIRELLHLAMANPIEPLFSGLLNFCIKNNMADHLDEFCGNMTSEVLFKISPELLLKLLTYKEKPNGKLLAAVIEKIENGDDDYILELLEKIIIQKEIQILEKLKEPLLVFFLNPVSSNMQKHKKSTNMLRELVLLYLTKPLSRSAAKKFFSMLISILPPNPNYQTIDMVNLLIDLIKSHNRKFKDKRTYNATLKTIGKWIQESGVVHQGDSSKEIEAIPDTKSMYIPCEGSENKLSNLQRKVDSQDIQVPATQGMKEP
Assay: EMSA; protein 10-160 nM, DNA 1 nM; 20 mM Tris-HCl pH 8.0, 100 mM NaCl, 2.5 mM MgCl2, 10 mM CaCl2, 0.1 mg/ml BSA, 1 mM TCEP, 30 min at 20 °C; 1.2% agarose gel, 0.5x TBE, 4 °C
Details: protein: recombinant; tags: N-terminal Strep(II); label: 5'-32P on EMSA1; blunt

B1: 30 bp dsDNA (EMSA1/EMSA2) (dsDNA)
DNA 1: TAGCAAGGCACTGGTAGAATTCGGCAGCGT
DNA 2: ACGCTGCCGAATTCTACCAGTGCCTTGCTA
binding result: binds
